Test results published in article PMC9105384, “Ethyl Gallate Dual-Targeting PTPN6 and PPARγ Shows Anti-Diabetic and Anti-Obese Effects” (International Journal of Molecular Sciences, 2022).

Test system: T1, Cc1cc(=O)oc2c(F)c(OP(=O)(O)O)c(F)cc12
T1 construct: Full-length human PTPN6 with an N-terminal hexahistidine (His6) tag
Experiment: Michaelis-Menten kinetics, fluorescence (Km)
Type: biochemical, Homo sapiens

Substance: PTPN6 (Homo sapiens)
- Km: 86.26 µM
